Assay results from PMC12888920, “MMP-9 regulates disulphide isomerase activity of TGM2 to enhance fusion glycoprotein-mediated syncytium formation of respiratory syncytial virus” (Protein & Cell, 2025).

Assays:
[1] = target: purified human MMP-9 (human) (UniProt P14780); experiment: BLI; ForteBio Octet; who was immobilised and buffer not told in the text shown; three biological replicates
[2] = target: DS-Cav1 (RSV F prefusion conformation) (respiratory syncytial virus (strain not stated)) (UniProt P03420); experiment: as above

Sequence of purified human MMP-9 (human) (P14780 20-707): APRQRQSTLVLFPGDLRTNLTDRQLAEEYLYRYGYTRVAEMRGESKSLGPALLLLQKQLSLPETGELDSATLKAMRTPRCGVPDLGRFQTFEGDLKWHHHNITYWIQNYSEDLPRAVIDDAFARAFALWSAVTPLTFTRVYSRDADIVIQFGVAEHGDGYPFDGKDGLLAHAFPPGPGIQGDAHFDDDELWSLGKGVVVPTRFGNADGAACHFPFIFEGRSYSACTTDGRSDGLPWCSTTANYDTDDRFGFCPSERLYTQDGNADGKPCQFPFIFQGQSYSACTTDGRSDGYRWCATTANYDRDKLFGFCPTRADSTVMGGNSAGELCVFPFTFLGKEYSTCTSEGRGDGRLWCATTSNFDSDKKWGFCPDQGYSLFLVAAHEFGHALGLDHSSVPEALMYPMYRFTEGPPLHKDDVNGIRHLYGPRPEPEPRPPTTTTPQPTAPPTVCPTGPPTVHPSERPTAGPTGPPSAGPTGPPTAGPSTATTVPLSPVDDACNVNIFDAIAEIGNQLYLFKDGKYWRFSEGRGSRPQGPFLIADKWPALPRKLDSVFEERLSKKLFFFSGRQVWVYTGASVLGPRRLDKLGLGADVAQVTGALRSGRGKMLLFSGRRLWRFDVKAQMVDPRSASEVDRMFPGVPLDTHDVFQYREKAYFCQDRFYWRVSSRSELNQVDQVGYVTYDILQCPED
Sequence of purified human TGM2 (transglutaminase 2) (P21980 whole entry): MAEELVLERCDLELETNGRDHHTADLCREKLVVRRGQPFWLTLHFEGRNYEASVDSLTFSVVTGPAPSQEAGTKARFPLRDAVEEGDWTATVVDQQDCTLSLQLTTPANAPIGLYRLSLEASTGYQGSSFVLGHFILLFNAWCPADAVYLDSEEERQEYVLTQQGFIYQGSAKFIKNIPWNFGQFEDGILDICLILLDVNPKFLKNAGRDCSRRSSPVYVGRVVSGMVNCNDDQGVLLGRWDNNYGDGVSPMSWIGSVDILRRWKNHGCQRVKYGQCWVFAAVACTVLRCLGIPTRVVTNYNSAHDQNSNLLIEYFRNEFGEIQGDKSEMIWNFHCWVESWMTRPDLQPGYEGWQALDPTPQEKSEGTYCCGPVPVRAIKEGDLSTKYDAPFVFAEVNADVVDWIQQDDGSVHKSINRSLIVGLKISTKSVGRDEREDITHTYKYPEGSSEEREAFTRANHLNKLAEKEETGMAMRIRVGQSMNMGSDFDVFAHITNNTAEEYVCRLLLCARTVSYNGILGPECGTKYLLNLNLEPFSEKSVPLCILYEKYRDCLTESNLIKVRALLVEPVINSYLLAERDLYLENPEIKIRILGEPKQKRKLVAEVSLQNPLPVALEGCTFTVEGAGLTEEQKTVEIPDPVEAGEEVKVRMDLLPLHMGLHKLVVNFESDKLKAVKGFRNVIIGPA

Row | Substance | Kd [1] [µM] | Kd [2] [µM]
1 | DS-Cav1 (RSV F prefusion conformation) (from UniProt P03420 26-574) (natural protein) | 0.146 | –
2 | purified human TGM2 (transglutaminase 2) (from UniProt P21980 1-687) (enzyme) | – | 6.31
